{
  "source": "patent US20140105902A1",
  "about": "(SAMSUNG ELECTRONICS, published 2014)",
  "target": "c-Met, endogenous in human cell lines (NCI-H441, EBC-1, MKN45, HCC827 ER15, HEK293) (human, UniProt P08581 25-1390)",
  "sequence (P08581 25-1390)": "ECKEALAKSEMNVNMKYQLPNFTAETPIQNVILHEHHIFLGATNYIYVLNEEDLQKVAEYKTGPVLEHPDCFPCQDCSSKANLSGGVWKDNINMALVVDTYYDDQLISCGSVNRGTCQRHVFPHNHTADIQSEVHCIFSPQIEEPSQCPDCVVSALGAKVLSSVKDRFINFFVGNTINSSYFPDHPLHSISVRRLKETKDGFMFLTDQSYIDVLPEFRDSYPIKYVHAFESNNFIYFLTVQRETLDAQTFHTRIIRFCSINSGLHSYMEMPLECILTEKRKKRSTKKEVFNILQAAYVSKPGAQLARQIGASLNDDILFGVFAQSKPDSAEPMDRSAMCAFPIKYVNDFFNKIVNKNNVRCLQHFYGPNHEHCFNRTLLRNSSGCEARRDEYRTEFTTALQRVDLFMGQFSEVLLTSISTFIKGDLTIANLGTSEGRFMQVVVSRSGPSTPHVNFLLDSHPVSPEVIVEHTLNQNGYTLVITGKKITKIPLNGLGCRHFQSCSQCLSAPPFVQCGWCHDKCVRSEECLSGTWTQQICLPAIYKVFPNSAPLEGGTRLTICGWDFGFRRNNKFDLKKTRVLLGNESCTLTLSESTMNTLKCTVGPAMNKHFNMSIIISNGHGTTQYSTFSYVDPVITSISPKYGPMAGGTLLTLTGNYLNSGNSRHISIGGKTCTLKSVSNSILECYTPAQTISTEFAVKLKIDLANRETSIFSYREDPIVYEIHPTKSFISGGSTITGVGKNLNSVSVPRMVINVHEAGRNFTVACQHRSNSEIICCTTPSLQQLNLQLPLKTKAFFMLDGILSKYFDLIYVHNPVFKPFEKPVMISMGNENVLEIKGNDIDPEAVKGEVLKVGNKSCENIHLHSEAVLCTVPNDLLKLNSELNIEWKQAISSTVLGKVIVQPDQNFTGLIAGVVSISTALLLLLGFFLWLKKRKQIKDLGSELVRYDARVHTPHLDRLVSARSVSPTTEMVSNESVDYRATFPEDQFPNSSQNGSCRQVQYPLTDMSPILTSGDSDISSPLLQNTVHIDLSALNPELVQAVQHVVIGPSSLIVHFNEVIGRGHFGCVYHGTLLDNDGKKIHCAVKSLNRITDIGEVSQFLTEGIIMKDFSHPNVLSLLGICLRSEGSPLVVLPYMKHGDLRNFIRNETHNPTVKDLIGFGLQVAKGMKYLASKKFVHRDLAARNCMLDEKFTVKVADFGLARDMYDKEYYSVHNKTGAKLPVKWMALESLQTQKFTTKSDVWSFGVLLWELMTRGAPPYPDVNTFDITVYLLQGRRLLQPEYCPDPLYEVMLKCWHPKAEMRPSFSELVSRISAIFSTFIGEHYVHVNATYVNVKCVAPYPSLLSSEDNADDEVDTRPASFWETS",
  "experiment": "cell-based or functional assay",
  "data": [
    {"binder": "anti-c-Met antibody L3-1Y (huAbF46-H4-A1 (U6-HC7)) (antibody, V domains shown) VH: EVQLVESGGGLVQPGGSLRLSCAASGFTFTDYYMSWVRQAPGKGLEWLGFIRNKANGYTTEYSASVKGRFTISRDNSKNTLYLQMNSLRAEDTAVYYCARDNWFAYWGQGTLVTVSS VL: DIQMTQSPSSLSASVGDRVTITCKSSQSLLASGNQNNYLAWYQQKPGKAPKMLIIWASTRVSGVPSRFSGSGSGTDFTLTISSLQPEDFATYYCQQSYSRPYTFGQGTKVEIKR", "values": [
      {"measurement": "total c-Met level by ELISA, Cbl siRNA-transformed EBC-1 cells, 5 ug/ml, 24 h, relative to control IgG", "result": "~30", "unit": "%"}
    ]}
  ]
}
